Source: the RNAGym collection of RNA variant scans (doi:10.7554/elife.80360)

B1: HDV Ribozyme (parent)
chain: GGCCGGCAUGGUCCCAGCCUCCUCGCUGGCGCCGGCUGGGCAACAUUCCGAGGGGACCGUCCCCUCGGUAAUGGCGAAUGGGACCCA

Variants of: B1
Assay: self-cleavage, relative activity (ratio to wild type); higher = more cleavage; co-transcriptional

Row | Variant | self-cleavage
1 | GGCCGGCAUGGUCCCAGCCUCCUCGCUGGCGCCGGCUGGGCAACAUUCCGAGGGGGCCGUCCCCUCGCUAAUGGCGAAUGGGACCCA [A56G G68C] | 1.01
2 | GGCCGGCAUGGUCCCAGCCUCCUCGCUGGCGCCGGCUGGGCAACAUUCCGAGCGGACCGUCCCCUCGGUAAUGGCGACUGGGACCCA [G53C A78C] | 0.0678
3 | GGCCGGCAUGGUCCCAGCCUCAACGCUGGCGCCGGCUGGGCAACAUUCCGAGGGGACCGUCCCCUCGGUAAUGGCGAAUGGGACCCA [C22A U23A] | 0.224
4 | GGCCGGCAUAGUCCCAGCCUCCUCGCUGGCGCCGGCUGGGCAACAUUCCGAGGGGACCGUCCCCUCGGUAAUGGCGUAUGGGACCCA [G10A A77U] | 0.169
5 | GCCCGGCAUGGUCCCAGCCUCCUUGCUGGCGCCGGCUGGGCAACAUUCCGAGGGGACCGUCCCCUCGGUAAUGGCGAAUGGGACCCA [G2C C24U] | 0.0405
6 | GGCCGGCAUGGUCCCAGCCUCCUCGCUGGCGCCGGCUGGGCAACAUUCCGAGGGUACCGUCCCCUCGGUAAUGGCGAAUCGGACCCA [G55U G80C] | 0.175
7 | GGCCGGCAGGGUCCCAGCCUCCUCGCUGGCGCCGGCUGGGCAACAUUCCGAGGGGACCGUCCCCUCGGUAAUGGCGAAUGGCACCCA [U9G G82C] | 0.646
8 | GGCCGGCAUGGUCCCAGCCUCCUCGCUGGCGCCGGCUGGGCAACAUUCCGAGGGGACCGUCCCCUCAGUAAUGGCGAAUUGGACCCA [G67A G80U] | 0.203
9 | GGCCGCCAUGGUCACAGCCUCCUCGCUGGCGCCGGCUGGGCAACAUUCCGAGGGGACCGUCCCCUCGGUAAUGGCGAAUGGGACCCA [G6C C14A] | 0
10 | GUCCGGCAUGGUCCCAGCCUCCUCGCUGGCGCCGGUUGGGCAACAUUCCGAGGGGACCGUCCCCUCGGUAAUGGCGAAUGGGACCCA [G2U C36U] | 0.0308
11 | GGCCGGCAUGGUCCCAGCCUCCUCGCUGGCGCCGGCUGGGCAACAUUACGAGGGGACCGACCCCUCGGUAAUGGCGAAUGGGACCCA [C48A U60A] | 0.918
12 | GGCCGGCAUGAUCCCAGCCUCCUCGCUGGCGCCGGCAGGGCAACAUUCCGAGGGGACCGUCCCCUCGGUAAUGGCGAAUGGGACCCA [G11A U37A] | 0.0567
13 | GGCCGGCAUGGUCCCAGCCUCCUCGCUGGCGGCGGCUGGGCAACAUUCCGAGGGGACCGUCCCCUCGGUAUUGGCGAAUGGGACCCA [C32G A71U] | 0.115
14 | GGGCGGCAUGGUCCCAGCCUCCUCGCUGGCGCCGGCUGGGCCACAUUCCGAGGGGACCGUCCCCUCGGUAAUGGCGAAUGGGACCCA [C3G A42C] | 0.128
15 | GGCCGGCAUGGUCCCAGCCUCCUCGCUGGCGCCGGCUGGGCAACAUUCCGUGGGGACCGUCCCCUCGGUAAUGGCGAAUCGGACCCA [A51U G80C] | 0.208
16 | GGCCGGCAUGGUCCCAGCCUCCUCGCUAGCGCCGGCUGGGCAACAUUCCGAGGGGACCGUCCCCUAGGUAAUGGCGAAUGGGACCCA [G28A C66A] | 0.0811

Row | Variant | self-cleavage
17 | GGCCGGCAUGGUCCCAGCCUCCUCGCUGGCGCCGGCUGGGCAACAUUCCGAGGGGACCCUCCCCUCGGUAAUGUCGAAUGGGACCCA [G59C G74U] | 0.531
18 | GGCCGGCAGGGUCCCAGCCUCCUCGCUGGCGCCGGCUGGGCAACAUUCCGAGGGGACCGUCCCCUCGGUUAUGGCGAAUGGGACCCA [U9G A70U] | 0.739
19 | GGCCGGCAUGGUCCCCGCCUCCUCGCUGGCGCCGGCAGGGCAACAUUCCGAGGGGACCGUCCCCUCGGUAAUGGCGAAUGGGACCCA [A16C U37A] | 0
20 | GGCCGGCAUGGUCCCAGCCUCCUCGCUGGCGCCGGCUGGGCAACAUUCCGAGGGGACCGUCGCCUCGGUAAUGGCGAAUGGUACCCA [C62G G82U] | 0.0923
21 | GGCCGGCAUGGUCCCAGCCUCCUCGCUGGCGCCUGCUGGGCAACAUUCCGAGGUGACCGUCCCCUCGGUAAUGGCGAAUGGGACCCA [G34U G54U] | 0.0923
22 | GGCCGCCAUGGUCCCAGCCUCCUCGCUGGCGCCGGCUGGGCGACAUUCCGAGGGGACCGUCCCCUCGGUAAUGGCGAAUGGGACCCA [G6C A42G] | 0
23 | GGCCGGGAUGGUCCCAGCCUCCUCGCUGGCGCCGGGUGGGCAACAUUCCGAGGGGACCGUCCCCUCGGUAAUGGCGAAUGGGACCCA [C7G C36G] | 0.0723
24 | GGCCGGCAUGAUCCCAGCCUCCUCGCUGGCGCCGGCUGGGCAACAUUCCUAGGGGACCGUCCCCUCGGUAAUGGCGAAUGGGACCCA [G11A G50U] | 0.283
25 | GGCCGGCAUGGUCCCAGCCUUCUCGCUGGAGCCGGCUGGGCAACAUUCCGAGGGGACCGUCCCCUCGGUAAUGGCGAAUGGGACCCA [C21U C30A] | 0.153
26 | GGCGGGCAUGGUCCCAGCCUCCUCGCUGGUGCCGGCUGGGCAACAUUCCGAGGGGACCGUCCCCUCGGUAAUGGCGAAUGGGACCCA [C4G C30U] | 0.0615
27 | GGCCGGCAUGGUCCCAGCCUCCUCGCUGGCGCCCGCUGGGCAACAUUCCGAGGGGACCGUCCCCUCGGUAAUGGCGAAUCGGACCCA [G34C G80C] | 0.23
28 | GGCCGGCAUGGUCCCAGCCUCCUCGCUGGCGCCGGCUGGGCGACAUUGCGAGGGGACCGUCCCCUCGGUAAUGGCGAAUGGGACCCA [A42G C48G] | 0.791
29 | GGCCGGCAUGGUCCCAGCCUCCUCGCUCGCGCCGGCUGGGCAACAUUCCGAGGGGACCGUCCCCUCGGUAAUGGCGAAUGGGACCCA [G28C] | 0.0814
30 | GGCCGGCAUGGUCCCAGCCUCCUCGCUGGCGCCGGCUGGGCAGCAUUCCGAGGGGACCGUCCCCUCGGUAAUGGCCAAUGGGACCCA [A43G G76C] | 0.58
31 | GGCCGGCAUGGUCCCAGCCUCCUUGCUGGCUCCGGCUGGGCAACAUUCCGAGGGGACCGUCCCCUCGGUAAUGGCGAAUGGGACCCA [C24U G31U] | 0.0228
32 | GGCCGGCAUGGUACCAGCCUCCUCGCUGGCGCCGGCUGGGCAACAUUCCGAGGGGACGGUCCCCUCGGUAAUGGCGAAUGGGACCCA [C13A C58G] | 0.0639
